Results as given in article PMC8524200, “Structural studies of codeinone reductase reveal novel insights into aldo-keto reductase function in benzylisoquinoline alkaloid biosynthesis” (The Journal of Biological Chemistry, 2021).

Target: the molecule itself
Assay: SEC; Superdex 200 (2.4 ml), 25 mM Tris-HCl pH 7.5, 150 mM KCl, 0.5 mM EDTA; COR1.3 0.5 mg/ml diluted in running buffer and incubated overnight at room temperature (oxidizing conditions); also run with 1 mM DTT in the buffer (reducing conditions: dimer destabilized)

B1: codeinone reductase COR1.3 isoform (enzyme, Papaver somniferum)
chain: MESNGVPMITLSSGIRMPALGMGTAETMVKGTEREKLAFLKAIEVGYRHFDTAAAYQSEECLGEAIAEALQLGLIKSRDELFITSKLWCADAHADLVLPALQNSLRNLKLDYLDLYLIHHPVSLKPGKFVNEIPKDHILPMDYKSVWAAMEECQTLGFTRAIGVCNFSCKKLQELMAAAKIPPVVNQVEMSPTLHQKNLREYCKANNIMITAHSVLGAICAPWGSNAVMDSKVLHQIAVARGKSVAQVSMRWVYQQGASLVVKSFNEGRMKENLKIFDWELTAENMEKISEIPQSRTSSADFLLSPTGPFKTEEEFWDEKD
modifications: intermolecular disulfide bond between Cys-220 of each protomer
notes: codeinone reductase isoform COR1.3, Papaver somniferum (AAF13738; Q9SQ68.1); The methods for size-exclusion chromatography say only 'purified COR1.3'; also called apo-COR
Question: B1 was tested. Which “stoichiometry N” value did it give?
Answer: 2
